Positions of bridges follow the written chain, without caps; N, C: chain ends. Non-standard residues stand in square brackets, D forms with d. S8 = C=CCCCCCC[C@](C)(N)C(=O)O; S5 = C=CCCC[C@](C)(N)C(=O)O; FAM = carboxyfluorescein
Legend:
[1] = target: T1, Mdm2 (amino acids 6-125), wild type (UniProt Q00987 6-125); assay: not stated; Kds told in the discussion of the structures without method, construct or citation
T1 construct: Cloned in pGEX-6P-1; also called Mdm2 (6-125); wild-type Mdm2; source: E. coli BL21(DE3) pLysS, purified (GSTrap, on-column PreScission cleavage, Resource S cation exchange)

[2] = target: T1, Mdm2 (amino acids 6-125), wild type; assay: fluorescence polarisation; competitive fluorescence anisotropy: M06 titrated against a constant 150 nM Mdm2 (6-125) wild type or M62A and 50 nM FAM-12-1 peptide; PBS pH 7.4, 3% DMSO, 0.1% Tween-20; apparent Kd; 3-5 titrations; conditions: both partners purified
[3] = target: T2, Mdm2-M62A (amino acids 6-125) (UniProt Q00987 6-125, M62A); assay: as above; conditions: both partners purified
T2 construct: Made from the wild-type pGEX-6P-1 construct by QuickChange mutagenesis; also called Nutlin-resistant Mdm2; mutant Mdm2 (6-125); source: E. coli BL21(DE3) pLysS, purified (GSTrap, on-column PreScission cleavage, Resource S cation exchange)

Kd [1]	Kd [2]	Kd [3]	binding result [2]	binding result [3]	Binder
128 nM	107 ± 47.9 nM	63.1 ± 17.8 nM			Ac-TSF[S5]EYWYLL[S8]-NH2 (staple 4-11; SMILES CC(=O)N[C@H](C(=O)N[C@@H](CO)C(=O)N[C@@H](Cc1ccccc1)C(=O)N[C@@]1(C)CCCC=CCCCCCC[C@@](C)(C(N)=O)NC(=O)[C@H](CC(C)C)NC(=O)[C@H](CC(C)C)NC(=O)[C@H](Cc2ccc(O)cc2)NC(=O)[C@H](Cc2c[nH]c3ccccc23)NC(=O)[C@H](Cc2ccc(O)cc2)NC(=O)[C@H](CCC(=O)O)NC1=O)[C@@H](C)O) [M06 stapled peptide]
			binds	binds	{FAM}-RFMDYWEGL-NH2 (12-1 peptide, tracer of the fluorescence anisotropy assay) [carboxyfluorescein (FAM) labelled 12-1 peptide]

Source: PMC4130638, “Structure of a Stapled Peptide Antagonist Bound to Nutlin-Resistant Mdm2” (PLoS ONE, 2014)
